# Laboratory results as given in PMC9163516.
# B1: TGM-D12 (domain or fragment)
# chain: DDSGCMPFSDEAATYKYVAKGPKNIEIPAQIDNSGMYPDYTHVKRFCKGLHGEDTTGWFVGICLASQWYYYEGVQECDDRRCSPLPTNDTVSFEYLKATVNPGIIFNITVHPDASGKYPELTYIKRICKNFPTDSNVQGHIIGMCYNAEWQFSSTPTCPAS
# modifications: not checked
# B2: TGM-D2 (domain or fragment)
# chain: RCSPLPTNDTVSFEYLKATVNPGIIFNITVHPDASGKYPELTYIKRICKNFPTDSNVQGHIIGMCYNAEWQFSSTPTCPAS
# modifications: not checked
# Target: T1, biotinylated avi-tagged TβRI, P36897
# T1 chain: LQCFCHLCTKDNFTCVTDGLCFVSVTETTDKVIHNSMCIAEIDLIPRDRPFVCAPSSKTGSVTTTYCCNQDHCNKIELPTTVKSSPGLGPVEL
# Assay: SPR; BIAcore X100; biotinylated avi-tagged TβRI or TβRII captured on neutravidin-coated CM-5 chip (results say streptavidin) at 50-150 RU; TGM constructs injected as 2-fold dilution series in 25 mM Hepes, pH 7.4, 150 mM NaCl, 0.005% P20, 100 μl/min; 1:1 kinetic fit of a single injection series
Binder,Kd,koff,kon
B1,24 nM,0.0016 s⁻¹,67000 M⁻¹ s⁻¹
B2,310 nM,0.091 s⁻¹,300000 M⁻¹ s⁻¹
